B1: Pistol ribozyme (parent)
chain: GGGUCGUUGUUCCAUAAUCGCGUGGAUAUGGCACGCAAGUUUCUACCGGGCACCGUAAAUGUCCGACUGGAGCCGUUCGGGCGGCUAUAAACAGACCUCAGGCCCGAAGCGUGGCGGCACCUGCCGCCGGUGGUAAAAAAGAUCGGAAGAGCACACGUCU

Variants of: B1
Test: aptazyme ON/OFF ratio, guanine; higher = stronger switching; co-transcriptional cleavage with and without guanine

| Variant | aptazyme ON/OFF ratio |
| --- | --- |
| GGGUCGUAUUCCAAUAAUCGCGUGGAUAUGGCACGCAAGUUUCUACCGGGCACCGUAAAUGUCCGACUGGAGCCGUUCGGGCGGCUAUAAACAGACCUCAGGCCCGAAGCGUGGCGGCACCUGCCGCCGGUGGUAAAAAAGAUCGGAAGAGCACACGUCU | 1.04 |
| GGGUCGGAGCCUCAUAAUCGCGUGGAUAUGGCACGCAAGUUUCUACCGGGCACCGUAAAUGUCCGACUGGAGCCGUUCGGGCGGCUAUAAACAGACCUCAGGCCCGAAGCGUGGCGGCACCUGCCGCCGGUGGUAAAAAAGAUCGGAAGAGCACACGUCU | 1.31 |
| GGGUCGUCAUUUAAUAAUCGCGUGGAUAUGGCACGCAAGUUUCUACCGGGCACCGUAAAUGUCCGACUGGAGCCGUUCGGGCGGCUAUAAACAGACCUCAGGCCCGAAGCGUGGCGGCACCUGCCGCCGGUGGUAAAAAAGAUCGGAAGAGCACACGUCU | 1.17 |
| GGGUCGGGACGGCAUAAUCGCGUGGAUAUGGCACGCAAGUUUCUACCGGGCACCGUAAAUGUCCGACUGGAGCCGUUCGGGCGGCUAUAAACAGACCUCAGGCCCGAAGCGUGGCGGCACCUGCCGCCGGUGGUAAAAAAGAUCGGAAGAGCACACGUCU | 1.53 |
| GGGUCGCUCGUCCAUAAUCGCGUGGAUAUGGCACGCAAGUUUCUACCGGGCACCGUAAAUGUCCGACUGGAGCCGUUCGGGCGGCUAUAAACAGACCUCAGGCCCGAAGCGUGGCGGCACCUGCCGCCGGUGGUAAAAAAGAUCGGAAGAGCACACGUCU | 1.08 |
| GGGUCGUAAGCGAAUAAUCGCGUGGAUAUGGCACGCAAGUUUCUACCGGGCACCGUAAAUGUCCGACUGGAGCCGUUCGGGCGGCUAUAAACAGACCUCAGGCCCGAAGCGUGGCGGCACCUGCCGCCGGUGGUAAAAAAGAUCGGAAGAGCACACGUCU | 1.16 |
| GGGUCGUCAGCAUAUAAUCGCGUGGAUAUGGCACGCAAGUUUCUACCGGGCACCGUAAAUGUCCGACUGGAGCCGUUCGGGCGGCUAUAAACAGACCUCAGGCCCGAAGCGUGGCGGCACCUGCCGCCGGUGGUAAAAAAGAUCGGAAGAGCACACGUCU | 1.22 |
| GGGUCGCCGCUGGAUAAUCGCGUGGAUAUGGCACGCAAGUUUCUACCGGGCACCGUAAAUGUCCGACUGGAGCCGUUCGGGCGGCUAUAAACAGACCUCAGGCCCGAAGCGUGGCGGCACCUGCCGCCGGUGGUAAAAAAGAUCGGAAGAGCACACGUCU | 1.18 |
| GGGUCGUGUGCCUAUAAUCGCGUGGAUAUGGCACGCAAGUUUCUACCGGGCACCGUAAAUGUCCGACUGGAGCCGUUCGGGCGGCUAUAAACAGACCUCAGGCCCGAAGCGUGGCGGCACCUGCCGCCGGUGGUAAAAAAGAUCGGAAGAGCACACGUCU | 1.03 |
| GGGUCGUUUCCACAUAAUCGCGUGGAUAUGGCACGCAAGUUUCUACCGGGCACCGUAAAUGUCCGACUGGAGCCGUUCGGGCGGCUAUAAACAGACCUCAGGCCCGAAGCGUGGCGGCACCUGCCGCCGGUGGUAAAAAAGAUCGGAAGAGCACACGUCU | 1.08 |
| GGGUCGAAACGCCAUAAUCGCGUGGAUAUGGCACGCAAGUUUCUACCGGGCACCGUAAAUGUCCGACUGGAGCCGUUCGGGCGGCUAUAAACAGACCUCAGGCCCGAAGCGUGGCGGCACCUGCCGCCGGUGGUAAAAAAGAUCGGAAGAGCACACGUCU | 1.14 |
| GGGUCGAGAUUCAAUAAUCGCGUGGAUAUGGCACGCAAGUUUCUACCGGGCACCGUAAAUGUCCGACUGGAGCCGUUCGGGCGGCUAUAAACAGACCUCAGGCCCGAAGCGUGGCGGCACCUGCCGCCGGUGGUAAAAAAGAUCGGAAGAGCACACGUCU | 1.39 |
| GGGUCGCCGAAAUAUAAUCGCGUGGAUAUGGCACGCAAGUUUCUACCGGGCACCGUAAAUGUCCGACUGGAGCCGUUCGGGCGGCUAUAAACAGACCUCAGGCCCGAAGCGUGGCGGCACCUGCCGCCGGUGGUAAAAAAGAUCGGAAGAGCACACGUCU | 1.13 |
| GGGUCGCAAUGCUAUAAUCGCGUGGAUAUGGCACGCAAGUUUCUACCGGGCACCGUAAAUGUCCGACUGGAGCCGUUCGGGCGGCUAUAAACAGACCUCAGGCCCGAAGCGUGGCGGCACCUGCCGCCGGUGGUAAAAAAGAUCGGAAGAGCACACGUCU | 1.25 |
| GGGUCGCACCUGAAUAAUCGCGUGGAUAUGGCACGCAAGUUUCUACCGGGCACCGUAAAUGUCCGACUGGAGCCGUUCGGGCGGCUAUAAACAGACCUCAGGCCCGAAGCGUGGCGGCACCUGCCGCCGGUGGUAAAAAAGAUCGGAAGAGCACACGUCU | 1.06 |
| GGGUCGAGUAAUAAUAAUCGCGUGGAUAUGGCACGCAAGUUUCUACCGGGCACCGUAAAUGUCCGACUGGAGCCGUUCGGGCGGCUAUAAACAGACCUCAGGCCCGAAGCGUGGCGGCACCUGCCGCCGGUGGUAAAAAAGAUCGGAAGAGCACACGUCU | 1.26 |
| GGGUCGGCAUGGUAUAAUCGCGUGGAUAUGGCACGCAAGUUUCUACCGGGCACCGUAAAUGUCCGACUGGAGCCGUUCGGGCGGCUAUAAACAGACCUCAGGCCCGAAGCGUGGCGGCACCUGCCGCCGGUGGUAAAAAAGAUCGGAAGAGCACACGUCU | 1.05 |
| GGGUCGUACCGAAAUAAUCGCGUGGAUAUGGCACGCAAGUUUCUACCGGGCACCGUAAAUGUCCGACUGGAGCCGUUCGGGCGGCUAUAAACAGACCUCAGGCCCGAAGCGUGGCGGCACCUGCCGCCGGUGGUAAAAAAGAUCGGAAGAGCACACGUCU | 1.06 |

| Variant | aptazyme ON/OFF ratio |
| --- | --- |
| GGGUCGAGGGUCGAUAAUCGCGUGGAUAUGGCACGCAAGUUUCUACCGGGCACCGUAAAUGUCCGACUGGAGCCGUUCGGGCGGCUAUAAACAGACCUCAGGCCCGAAGCGUGGCGGCACCUGCCGCCGGUGGUAAAAAAGAUCGGAAGAGCACACGUCU | 1.14 |
| GGGUCGGCACGAAAUAAUCGCGUGGAUAUGGCACGCAAGUUUCUACCGGGCACCGUAAAUGUCCGACUGGAGCCGUUCGGGCGGCUAUAAACAGACCUCAGGCCCGAAGCGUGGCGGCACCUGCCGCCGGUGGUAAAAAAGAUCGGAAGAGCACACGUCU | 1.11 |
| GGGUCGGGAGUGAAUAAUCGCGUGGAUAUGGCACGCAAGUUUCUACCGGGCACCGUAAAUGUCCGACUGGAGCCGUUCGGGCGGCUAUAAACAGACCUCAGGCCCGAAGCGUGGCGGCACCUGCCGCCGGUGGUAAAAAAGAUCGGAAGAGCACACGUCU | 1.11 |
| GGGUCGCCGUCUGAUAAUCGCGUGGAUAUGGCACGCAAGUUUCUACCGGGCACCGUAAAUGUCCGACUGGAGCCGUUCGGGCGGCUAUAAACAGACCUCAGGCCCGAAGCGUGGCGGCACCUGCCGCCGGUGGUAAAAAAGAUCGGAAGAGCACACGUCU | 1.2 |
| GGGUCGACGAUAUAUAAUCGCGUGGAUAUGGCACGCAAGUUUCUACCGGGCACCGUAAAUGUCCGACUGGAGCCGUUCGGGCGGCUAUAAACAGACCUCAGGCCCGAAGCGUGGCGGCACCUGCCGCCGGUGGUAAAAAAGAUCGGAAGAGCACACGUCU | 1.22 |
| GGGUCGCUUGACGAUAAUCGCGUGGAUAUGGCACGCAAGUUUCUACCGGGCACCGUAAAUGUCCGACUGGAGCCGUUCGGGCGGCUAUAAACAGACCUCAGGCCCGAAGCGUGGCGGCACCUGCCGCCGGUGGUAAAAAAGAUCGGAAGAGCACACGUCU | 1.06 |
| GGGUCGCAGACAGAUAAUCGCGUGGAUAUGGCACGCAAGUUUCUACCGGGCACCGUAAAUGUCCGACUGGAGCCGUUCGGGCGGCUAUAAACAGACCUCAGGCCCGAAGCGUGGCGGCACCUGCCGCCGGUGGUAAAAAAGAUCGGAAGAGCACACGUCU | 1.06 |
| GGGUCGAUCGCACAUAAUCGCGUGGAUAUGGCACGCAAGUUUCUACCGGGCACCGUAAAUGUCCGACUGGAGCCGUUCGGGCGGCUAUAAACAGACCUCAGGCCCGAAGCGUGGCGGCACCUGCCGCCGGUGGUAAAAAAGAUCGGAAGAGCACACGUCU | 1.08 |
| GGGUCGAGAUGUGAUAAUCGCGUGGAUAUGGCACGCAAGUUUCUACCGGGCACCGUAAAUGUCCGACUGGAGCCGUUCGGGCGGCUAUAAACAGACCUCAGGCCCGAAGCGUGGCGGCACCUGCCGCCGGUGGUAAAAAAGAUCGGAAGAGCACACGUCU | 1.44 |
| GGGUCGCGCAAAUAUAAUCGCGUGGAUAUGGCACGCAAGUUUCUACCGGGCACCGUAAAUGUCCGACUGGAGCCGUUCGGGCGGCUAUAAACAGACCUCAGGCCCGAAGCGUGGCGGCACCUGCCGCCGGUGGUAAAAAAGAUCGGAAGAGCACACGUCU | 1.26 |
| GGGUCGGGCCUAAAUAAUCGCGUGGAUAUGGCACGCAAGUUUCUACCGGGCACCGUAAAUGUCCGACUGGAGCCGUUCGGGCGGCUAUAAACAGACCUCAGGCCCGAAGCGUGGCGGCACCUGCCGCCGGUGGUAAAAAAGAUCGGAAGAGCACACGUCU | 1.29 |
| GGGUCGUCAAUCUAUAAUCGCGUGGAUAUGGCACGCAAGUUUCUACCGGGCACCGUAAAUGUCCGACUGGAGCCGUUCGGGCGGCUAUAAACAGACCUCAGGCCCGAAGCGUGGCGGCACCUGCCGCCGGUGGUAAAAAAGAUCGGAAGAGCACACGUCU | 1.42 |
| GGGUCGAUAACGCAUAAUCGCGUGGAUAUGGCACGCAAGUUUCUACCGGGCACCGUAAAUGUCCGACUGGAGCCGUUCGGGCGGCUAUAAACAGACCUCAGGCCCGAAGCGUGGCGGCACCUGCCGCCGGUGGUAAAAAAGAUCGGAAGAGCACACGUCU | 1.19 |
| GGGUCGGUCGUCUAUAAUCGCGUGGAUAUGGCACGCAAGUUUCUACCGGGCACCGUAAAUGUCCGACUGGAGCCGUUCGGGCGGCUAUAAACAGACCUCAGGCCCGAAGCGUGGCGGCACCUGCCGCCGGUGGUAAAAAAGAUCGGAAGAGCACACGUCU | 1.36 |
| GGGUCGAUGUUUGAUAAUCGCGUGGAUAUGGCACGCAAGUUUCUACCGGGCACCGUAAAUGUCCGACUGGAGCCGUUCGGGCGGCUAUAAACAGACCUCAGGCCCGAAGCGUGGCGGCACCUGCCGCCGGUGGUAAAAAAGAUCGGAAGAGCACACGUCU | 1.16 |
| GGGUCGGAACGGCAUAAUCGCGUGGAUAUGGCACGCAAGUUUCUACCGGGCACCGUAAAUGUCCGACUGGAGCCGUUCGGGCGGCUAUAAACAGACCUCAGGCCCGAAGCGUGGCGGCACCUGCCGCCGGUGGUAAAAAAGAUCGGAAGAGCACACGUCU | 1.32 |
| GGGUCGCUAAGAUAUAAUCGCGUGGAUAUGGCACGCAAGUUUCUACCGGGCACCGUAAAUGUCCGACUGGAGCCGUUCGGGCGGCUAUAAACAGACCUCAGGCCCGAAGCGUGGCGGCACCUGCCGCCGGUGGUAAAAAAGAUCGGAAGAGCACACGUCU | 1.15 |
| GGGUCGGAACUCCAUAAUCGCGUGGAUAUGGCACGCAAGUUUCUACCGGGCACCGUAAAUGUCCGACUGGAGCCGUUCGGGCGGCUAUAAACAGACCUCAGGCCCGAAGCGUGGCGGCACCUGCCGCCGGUGGUAAAAAAGAUCGGAAGAGCACACGUCU | 2.73 |

From the RNAGym collection of RNA variant scans (doi:10.1021/acssynbio.7b00057)
